Measurements: article PMC12637224, “The nonconserved integrin cytoplasmic region determines integrin subtype–specific characteristics by modulating talin1 binding kinetics” (The Journal of Biological Chemistry, 2025)

How the values were obtained:
[1] = biological target: T1, HaloTag-fused talin1 (HT-talin1), endogenous knock-in in mouse primary T cells (mouse (endogenous knock-in in mouse T …, UniProt P26039 1-2541, HaloTag labelled with HT SaraFluor 650T Ligand)); test: naive T cells, on MAdCAM1
[2] = biological target: T1, HaloTag-fused talin1 (HT-talin1), …; test: activated T cells, on MAdCAM1

B1: α4/β7 integrin, endogenous on mouse primary T cells (receptor)
chain 1: YNLDPENALLYQGPSGTLFGYSVVLHSHGSKRWLIVGAPTASWLSNASVVNPGAIYRCGIRKNPNQTCEQLQSGSPSGEPCGKTCLEERDNQWLGVTLSRQPGENGSIVTCGHRWKNIFYMKSDNKLPTGICYVMPSDLRTELSKRMAPCYKDYTRKFGENFASCQAGISSFYTQDLIVMGAPGSSYWTGTVFVYNITTNQYKAFVDRQNQVKFGSYLGYSVGAGHFRSPHTTEVVGGAPQHEQIGKAYIFSIDENELNIVYEMKGKKLGSYFGASVCAVDLNADGFSDLLVGAPMQSTIREEGRVFVYINSGMGAVMVEMERVLVGSDKYAARFGESIANLGDIDNDGFEDIAIGAPQEDDLRGAVYIYNGRVDGISSTYSQRIEGQQISKSLRMFGQSISGQIDADNNGYVDVAVGAFQSDSAVLLRTRPVVIVEASLSHPESVNRTKFDCTENGLPSVCMHLTLCFSYKGKEVPGYIVLFYNVSLDVHRKAESPSRFYFFSNGTSDVITGSIRVSSSGEKCRTHQAFMRKDVRDILTPIHVEATYHLGHHVITKRNTEEFPPLQPILQQKKEKDVIRKMINFARFCAYENCSADLQVSAKVGFLKPYENKTYLAVGSMKTIMLNVSLFNAGDDAYETTLNVQLPTGLYFIKILDLEEKQINCEVTESSGIVKLACSLGYIYVDRLSRIDISFLLDVSSLSRAHEDLSISVHASCENEGELDQVRDNRVTLTIPLRYEVMLTVHGLVNPTSFVYGSSEENEPETCMAEKLNLTFHVINTGISMAPNVSVKIMVPNSFLPQDDKLFNVLDVQTTTGQCHFKHYGRECTFAQQKGIAGTLTDIVKFLSKTDKRLLYCMKADQHCLDFLCNFGKMESGKEASVHIQLEGRPSILEMDETSSLKFEIKATAFPEPHPKVIELNKDENVAHVFLEGLHHQRPKRHFTIIIITISLLLGLIVLLLISCVMWKAGFFKRQYKSILQEENRRDSWSYVNSKSNDD
chain 2: ELDTKITSSGEAAEWEDPDLSLQGSCQPVPSCQKCILSHPSCAWCKQLNFTASGEAEARRCARREELLARGCPAQELEEPRGRQEVLQDKPLSQGDRGEGATQLAPQRIRVTLRPGEPQKFRVRFLRAAGYPVDLYYLMDLSYSMKDDLERVRQLGHALLVRLQEVTHSVRIGFGSFVDKTVLPFVSTVPSKLHHPCPSRLERCQPPFSFHHVLSLTGDAQAFEREVGRQNVSGNLDSPEGGFDAILQAALCQEQIGWRNVSRLLVFTSDDTFHTAGDGKLGGIFMPSDGRCHLDSNGVYTNSAEFDYPSVGQVAQALTAANIQPIFAVTGATLPVYQELRQLIPKSAVGELSEDSSNVVQLIMDAYDSLSSTVTLEHSPLPPGVSISFESHCKGPEKTEGEAGDRGQCNDVRVNQTVDFWVTLQATHCLPEAHVLRLWALGFSEELTVELHTVCDCNCGDAQPHAPYCSDGQGDLQCGICSCAPGRLGQLCECSEADLSSPDLESGCRAPNGTGPLCSGKGRCQCGRCSCSGQSSGRLCECDDASCERHEGILCGGFGHCQCGVCHCHANHTGRACECSKSVDSCVSPEGGLCSGHGYCKCNRCQCLDGYYGALCDQCLGCKSPCEQYRDCAECGAFGTGPLAANCSVVCADVNVTLTLAPNLDDGWCKERTIDNQLFFFLVEHAASGIVLRVRPQEKGVDHTRAIILGCTGGIVAVGLGLVLAYRLSVEIYDRREYRRFEKEQQQLNWKQDNNPLYKSAITTTVNPRFQGTNGRSPSLSLTREAD
B1 was tested, and the koff [1] was 0.576 s⁻¹ and the koff [2] was 0.61 s⁻¹.
